We go through 78 sequences from the supplement of paper PMC7877785.

± gives the uncertainty stated by the source.

The data set can be described thus: self-splicing fitness, log relative to wild type (ln ratio); higher = more splicing; Tetrahymena group I intron in knt gene, E. coli kanamycin selection, DiMSum; sequences stand for … in CUCUCU…GGAGGGAAAAGUUAUCAGGCAUGCACCUGGUAGCUAGUCUUUAAACCAAUAGAUUGCAUCGGUUUAAAAGGCAAGACCGUCAAAUUGCGGGAAAGGGGUCAACAGCCGUUCAGUACCAAGUCUCAGGGGAAACUUUGAGAUGGCCUUGCAAAGGGUAUGGUAAUAAGCUGACGGACAUGGUCCUAACCACGCAGCCAAGUCCUAAGUCAACAGAUCUUCUGUUGAUAUGGAUGCAGUUCACAGACUAAAUGUCGGUCGGGGAAGAUGUAUUCUUCUCAUAAGAUAUAGUCGGACCUCUCCUUAAUGGGAGCUAGCGGAUGAAGUGAUGCAACACUGGAGCCGCUGGGAACUAAUUUGUAUGCGAAAGUAUAUUGAUUAGUUUUGGAGUACUCGUGGUCG
An outline of the steps:
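Pooled colonies went to amplicon sequencing on an Illumina HiSeq 2500 after six replicate transformations. The plates were LB agar with 100 μg/mL carbenicillin, 50 μM IPTG and 0.2% rhamnose, with or without 25 μg/mL kanamycin, incubated overnight at 37°C or 30°C. The E. coli BL21(DE3) library had all eight P1ex-region intron nucleotides randomised, the intron placed in the knt kanamycin-resistance gene on pET-22b(+). DiMSum fitness is the error-weighted combination of replicate fold changes, kanamycin against none, normalised to wild type.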

In the case of GAGGAGCAAUAUUACGUUGA, the “self-splicing fitness (ln)” value is, setting by setting: (30 °C) -3.73 ± 0.42; (37 °C) -2.24 ± 0.33.
The matching figures for AACUAGCAAUAUUACGGUUU: -3.29 ± 0.12 and -2.62 ± 0.17.
In the case of CCGUAGCAAUAUUACGGGGC, the “self-splicing fitness (ln)” value runs as follows: (30 °C) -2.28 ± 0.24; (37 °C) -2.31 ± 0.34.
The matching figures for UGGAAGCAAUAUUACGCACU: -0.488 ± 0.12 and -0.124 ± 0.15.
The matching figures for GGCAAGCAAUAUUACGAUGU: -2.19 ± 0.12 and -1.44 ± 0.13.
The matching figures for CGGCAGCAAUAUUACGUCUA: -0.607 ± 0.071 and 0.443 ± 0.084.
GUCAAGCAAUAUUACGCCGA: the “self-splicing fitness (ln)” value is, setting by setting: (30 °C) -3.33 ± 0.45; (37 °C) -1.08 ± 0.18.
The matching figures for UCGGAGCAAUAUUACGAUCG: -1.22 ± 0.15 and -0.115 ± 0.15.
The matching figures for AGGAAGCAAUAUUACGUCAC: -3.41 ± 0.2 and -3.65 ± 0.3.
In the case of CUCCAGCAAUAUUACGCGCU, the “self-splicing fitness (ln)” value is -4.33 ± 0.26 (30 °C) and -2.2 ± 0.2 (37 °C).
The matching figures for CAACAGCAAUAUUACGGGGC: -3.71 ± 0.16 and -3.4 ± 0.17.
The matching figures for UGUCAGCAAUAUUACGGAAU: -2.63 ± 0.15 and -0.922 ± 0.14.
Regarding GGAUAGCAAUAUUACGUGGC, the “self-splicing fitness (ln)” value (30 °C) was -2.56 ± 0.25.
On to GGACAGCAAUAUUACGCAAC, for which the “self-splicing fitness (ln)” value by setting is: (30 °C) -1.68 ± 0.15; (37 °C) -0.445 ± 0.18.
The matching figures for CAGUAGCAAUAUUACGAUUU: -2.52 ± 0.19 and -1.45 ± 0.17.
On to AUGCAGCAAUAUUACGUCGC, for which the “self-splicing fitness (ln)” value is, setting by setting: (30 °C) -3.69 ± 0.31; (37 °C) -2.57 ± 0.32.
The matching figures for GCAGAGCAAUAUUACGACUC: -1.83 ± 0.15 and -1.38 ± 0.17.
The matching figures for UAACAGCAAUAUUACGUCUA: -0.13 ± 0.049 and 0.144 ± 0.06.
The matching figures for UAACAGCAAUAUUACGAGAU: -4.15 ± 0.33 and -2.9 ± 0.2.
Consider CCGAAGCAAUAUUACGUCUG, for which the “self-splicing fitness (ln)” value (30 °C) was -0.669 ± 0.06 and the “self-splicing fitness (ln)” value (37 °C) is -0.285 ± 0.068.
The matching figures for CGAGAGCAAUAUUACGUGUU: -3.83 ± 0.25 and -3.71 ± 0.46.
The matching figures for UCUCAGCAAUAUUACGUGAG: -1.2 ± 0.054 and -0.483 ± 0.072.
The matching figures for ACGAAGCAAUAUUACGCUAU: -0.928 ± 0.06 and -1.48 ± 0.078.
Regarding CAGUAGCAAUAUUACGCUAC, the “self-splicing fitness (ln)” value reads like this: (30 °C) -4.2 ± 0.3; (37 °C) -2.7 ± 0.23.
The matching figures for UAAGAGCAAUAUUACGUCAA: -3.41 ± 0.25 and -2.36 ± 0.18.
The matching figures for GACCAGCAAUAUUACGUGCA: -0.378 ± 0.07 and -0.122 ± 0.086.
The matching figures for UUACAGCAAUAUUACGAAAC: -2.85 ± 0.33 and -2.49 ± 0.41.
For UCUAAGCAAUAUUACGGAUG, the “self-splicing fitness (ln)” value was -2.9 ± 0.26 (30 °C) and -1.99 ± 0.29 (37 °C).
CAUAAGCAAUAUUACGAGAU: the “self-splicing fitness (ln)” value runs as follows: (30 °C) -3.53 ± 0.15; (37 °C) -3.51 ± 0.23.
The matching figures for CAUUAGCAAUAUUACGGGGA: -2.73 ± 0.21 and -1.77 ± 0.26.
The matching figures for UCACAGCAAUAUUACGCGUG: -2.87 ± 0.14 and -2.13 ± 0.14.
Take UUAGAGCAAUAUUACGUACC: the “self-splicing fitness (ln)” value (37 °C) was -0.711 ± 0.48.
With CAACAGCAAUAUUACGCAAC, the “self-splicing fitness (ln)” value is, setting by setting: (30 °C) -3.4 ± 0.23; (37 °C) -2.53 ± 0.33.
The matching figures for GUCUAGCAAUAUUACGGGGU: -3.56 ± 0.19 and -2.04 ± 0.13.
The matching figures for UAUGAGCAAUAUUACGGAUC: -3.84 ± 0.44 and -2.19 ± 0.41.
As for CUUUAGCAAUAUUACGGCCC, where the note is “30 °C”, the “self-splicing fitness (ln)” value was -1.71 ± 0.47.
In the case of GCACAGCAAUAUUACGAAUC, the “self-splicing fitness (ln)” value was -1.15 ± 0.076 (30 °C) and -0.69 ± 0.079 (37 °C).
With AUCCAGCAAUAUUACGCCGG, the “self-splicing fitness (ln)” value is, setting by setting: (30 °C) -3.51 ± 0.24; (37 °C) -2.36 ± 0.41.
The matching figures for ACGUAGCAAUAUUACGCAGG: -3.67 ± 0.24 and 0.325 ± 0.1.
As to UGGAAGCAAUAUUACGAGGG, under “37 °C”, the “self-splicing fitness (ln)” value is -1.89 ± 0.34.
As for AUCCAGCAAUAUUACGGAUA, the “self-splicing fitness (ln)” value is -3.19 ± 0.18 (30 °C) and -0.948 ± 0.12 (37 °C).
The matching figures for GUUCAGCAAUAUUACGACAC: -0.34 ± 0.15 and 0.897 ± 0.18.
The matching figures for GGGCAGCAAUAUUACGGCGG: -1.76 ± 0.12 and -1.99 ± 0.17.
In the case of UAAGAGCAAUAUUACGAAGG, the “self-splicing fitness (ln)” value was -4.21 ± 0.34 (30 °C) and -1.81 ± 0.2 (37 °C).
The matching figures for UAAGAGCAAUAUUACGGGUA: -2.57 ± 0.2 and -1.59 ± 0.17.
The matching figures for GAUAAGCAAUAUUACGAGGA: -2.86 ± 0.29 and -2.12 ± 0.27.
Turning to UAAGAGCAAUAUUACGAACG, the “self-splicing fitness (ln)” value (37 °C) was -2.57 ± 0.41.
On to UCGUAGCAAUAUUACGCAAU, for which the “self-splicing fitness (ln)” value is -3.7 ± 0.47 (30 °C) and -1.99 ± 0.31 (37 °C).
As to UCAAAGCAAUAUUACGGUUC, the “self-splicing fitness (ln)” value was -4.38 ± 0.22 (30 °C) and -2.5 ± 0.15 (37 °C).
As for UAAUAGCAAUAUUACGGGUC, the “self-splicing fitness (ln)” value is -3.33 ± 0.3 (30 °C) and -1.58 ± 0.28 (37 °C).
The matching figures for UUGCAGCAAUAUUACGCGAU: -2.02 ± 0.29 and -2.6 ± 0.36.
The matching figures for ACGAAGCAAUAUUACGGUCU: -0.57 ± 0.073 and -0.225 ± 0.097.
Regarding UCGUAGCAAUAUUACGUCGC, the “self-splicing fitness (ln)” value (37 °C) is -1.37 ± 0.41.
In the case of GGAGAGCAAUAUUACGUUGG, the “self-splicing fitness (ln)” value by setting is: (30 °C) -4.09 ± 0.47; (37 °C) -2.64 ± 0.36.
The matching figures for GUUCAGCAAUAUUACGAAAA: -0.216 ± 0.13 and 0.45 ± 0.15.
Consider GUAGAGCAAUAUUACGAGAC, for which the “self-splicing fitness (ln)” value (30 °C) was -3.02 ± 0.42.
For the sequence UUGCAGCAAUAUUACGGUAG, the “self-splicing fitness (ln)” value was -0.823 ± 0.057 (30 °C) and -0.064 ± 0.07 (37 °C).
As for UGGCAGCAAUAUUACGUCUA, the “self-splicing fitness (ln)” value by setting is: (30 °C) -0.425 ± 0.091; (37 °C) 0.66 ± 0.11.
The matching figures for GGUUAGCAAUAUUACGGAAU: -2.21 ± 0.25 and -1.01 ± 0.25.
The matching figures for CUACAGCAAUAUUACGGCGU: -3.49 ± 0.13 and -2.94 ± 0.19.
The matching figures for UAAUAGCAAUAUUACGGGGC: -3.12 ± 0.31 and -2.84 ± 0.31.
Turning to GGGUAGCAAUAUUACGCUAG, the “self-splicing fitness (ln)” value (37 °C) was -1.24 ± 0.26.
On to AUCAAGCAAUAUUACGCAUC, for which the “self-splicing fitness (ln)” value (30 °C) is -3.97 ± 0.24 and the “self-splicing fitness (ln)” value (37 °C) is -1.64 ± 0.14.
The matching figures for ACUUAGCAAUAUUACGAGCU: -0.379 ± 0.099 and -0.0037 ± 0.14.
The matching figures for GGGAAGCAAUAUUACGAGCU: -0.998 ± 0.29 and -0.3 ± 0.36.
Take GAUCAGCAAUAUUACGUGAU: the “self-splicing fitness (ln)” value is, setting by setting: (30 °C) -3.23 ± 0.18; (37 °C) -2.93 ± 0.22.
The matching figures for CUUUAGCAAUAUUACGUACU: -2.22 ± 0.23 and -2.82 ± 0.34.
The matching figures for CCAGAGCAAUAUUACGAUAG: -1.42 ± 0.082 and -1 ± 0.12.
Regarding AGUGAGCAAUAUUACGUUCC, the “self-splicing fitness (ln)” value was -4 ± 0.34 (30 °C) and -1.47 ± 0.16 (37 °C).
Consider ACUGAGCAAUAUUACGGCAG, for which the “self-splicing fitness (ln)” value is -1.75 ± 0.12 (30 °C) and -0.311 ± 0.15 (37 °C).
Consider GUCAAGCAAUAUUACGUUUA, for which the “self-splicing fitness (ln)” value (30 °C) is -1.92 ± 0.096 and the “self-splicing fitness (ln)” value (37 °C) is -0.845 ± 0.091.
The matching figures for UCACAGCAAUAUUACGUUUA: -2.53 ± 0.13 and -0.819 ± 0.082.
Regarding UGACAGCAAUAUUACGUCGA, the “self-splicing fitness (ln)” value by setting is: (30 °C) -0.222 ± 0.092; (37 °C) -0.143 ± 0.098.
In the case of GCGGAGCAAUAUUACGAUGC, the “self-splicing fitness (ln)” value (30 °C) is -1.81 ± 0.37.
As for AGCAAGCAAUAUUACGUGCG, the “self-splicing fitness (ln)” value runs as follows: (30 °C) -1.25 ± 0.069; (37 °C) -1.05 ± 0.087.
As to AUCCAGCAAUAUUACGAGGA, the “self-splicing fitness (ln)” value by setting is: (30 °C) -2.21 ± 0.17; (37 °C) -1.49 ± 0.17.
For AUUGAGCAAUAUUACGGGUA, the “self-splicing fitness (ln)” value (37 °C) is -2.06 ± 0.32.
Regarding CACUAGCAAUAUUACGCUGG, the “self-splicing fitness (ln)” value is -4.08 ± 0.37 (30 °C) and -1.87 ± 0.22 (37 °C).
